Experimental data taken from article PMC10658565, “Polymorphic nanobody crystals as long‐acting intravitreal therapy for wet age‐related macular degeneration” (Bioengineering & Translational Medicine, 2023).

B1: mNb‐WT [not stated] / recombinant VEGF‐A165 protein [not stated] (parent complex)
chain 1: MDVQLVESGGGLVQPGGSLRLSCAASGRTFSSYSMGWFRQAPGKEREFVVAISKGGYKYDAVSLEGRFTISRDNAKNTVYLQINSLRPEDTAVYYCASSRAYGSSRLRLADTYEYWGQGTLVTVSS
chain 2: APMAEGGGQNHHEVVKFMDVYQRSYCHPIETLVDIFQEYPDEIEYIFKPSCVPLMRCGGCCNDEGLECVPTEESNITMQIMRIKPHQGQHIGEMSFLQHNKCECRPKKDRARQENPCGPCSERRKHLFVQDPQTCKCSCKNTDSRCKARQLELNERTCRCDKPRR

Variants of: B1
Assay: ELISA; parent: 0.73 nM

Row | EC50 [pM] | Variant
1 | 910 | chain 1 K44A, chain 1 E45A
2 | 770 | chain 1 Q118N
3 | 800 | chain 1 Y95F
4 | 820 | chain 1 S8A
5 | 770 | chain 1 Q14N
6 | 620 | chain 1 K44A
7 | 790 | chain 1 E45A
